{
  "source": "patent US8357515",
  "proteins": {"B1": {"name": "ADAMTS-4 (aggrecanase-1), recombinant (enzyme, UniProt O75173 213-837, looked up, species assumed)", "A disintegrin and metalloproteinase with thrombospondin motifs 4": "FASLSRFVETLVVADDKMAAFHGAGLKRYLLTVMAAAAKAFKHPSIRNPVSLVVTRLVILGSGEEGPQVGPSAAQTLRSFCAWQRGLNTPEDSDPDHFDTAILFTRQDLCGVSTCDTLGMADVGTVCDPARSCAIVEDDGLQSAFTAAHELGHVFNMLHDNSKPCISLNGPLSTSRHVMAPVMAHVDPEEPWSPCSARFITDFLDNGYGHCLLDKPEAPLHLPVTFPGKDYDADRQCQLTFGPDSRHCPQLPPPCAALWCSGHLNGHAMCQTKHSPWADGTPCGPAQACMGGRCLHMDQLQDFNIPQAGGWGPWGPWGDCSRTCGGGVQFSSRDCTRPVPRNGGKYCEGRRTRFRSCNTEDCPTGSALTFREEQCAAYNHRTDLFKSFPGPMDWVPRYTGVAPQDQCKLTCQAQALGYYYVLEPRVVDGTPCSPDSSSVCVQGRCIHAGCDRIIGSKKKFDKCMVCGGDGSGCSKQSGSFRKFRYGYNNVVTIPAGATHILVRQQGNPGHRSIYLALKLPDGSYALNGEYTLMPSPTDVVLPGAVSLRYSGATAASETLSGHGPLAQPLTLQVLVAGNPQDTRLRYSFFVPRPTPSTPRPTPQDWLHRRAQILEILRRRPWAGRK"}},
  "key": {"[1]": {"system": "LAP-mIL-4 fusion protein with aggrecanase cleavage site B05 (HNEFRQRETYMVF)", "sequence (chain, as listed by the source)": "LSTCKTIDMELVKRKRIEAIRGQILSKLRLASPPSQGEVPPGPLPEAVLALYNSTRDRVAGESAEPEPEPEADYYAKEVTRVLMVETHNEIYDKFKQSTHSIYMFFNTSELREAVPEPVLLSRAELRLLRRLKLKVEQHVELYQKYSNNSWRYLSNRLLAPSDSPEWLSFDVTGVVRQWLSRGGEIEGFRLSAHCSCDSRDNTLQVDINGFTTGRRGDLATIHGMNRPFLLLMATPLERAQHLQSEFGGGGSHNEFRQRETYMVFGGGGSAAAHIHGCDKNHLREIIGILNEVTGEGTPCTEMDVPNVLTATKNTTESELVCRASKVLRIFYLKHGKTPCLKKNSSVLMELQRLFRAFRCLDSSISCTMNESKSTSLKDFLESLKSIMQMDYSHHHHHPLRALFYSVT"}, "[2]": {"system": "LAP-mIL-4 fusion protein with aggrecanase cleavage site B06 (DVQEFRGVTAVIR)", "sequence (chain, as listed by the source)": "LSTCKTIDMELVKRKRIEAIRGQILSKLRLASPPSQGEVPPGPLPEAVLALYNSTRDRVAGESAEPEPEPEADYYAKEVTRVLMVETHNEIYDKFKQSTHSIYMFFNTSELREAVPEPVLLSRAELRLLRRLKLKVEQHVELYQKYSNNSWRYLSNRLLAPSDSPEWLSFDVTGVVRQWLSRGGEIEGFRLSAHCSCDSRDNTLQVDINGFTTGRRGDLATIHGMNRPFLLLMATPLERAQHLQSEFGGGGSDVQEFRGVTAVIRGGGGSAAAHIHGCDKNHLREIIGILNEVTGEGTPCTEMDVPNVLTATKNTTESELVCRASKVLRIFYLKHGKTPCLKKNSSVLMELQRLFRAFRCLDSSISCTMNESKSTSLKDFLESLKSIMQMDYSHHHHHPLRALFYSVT"}},
  "data": [
    {"protein": "B1", "values": [
      {"measurement": "cleavage of the fusion protein in 293T supernatant after overnight incubation at 37 C, Western blot probed with anti-IL-4 antibody", "setting": "[1]", "value": "the Agg1 and Agg2 constructs are cleaved by ADAMTS-4"},
      {"measurement": "cleavage of the fusion protein in 293T supernatant after overnight incubation at 37 C, Western blot probed with anti-IL-4 antibody", "setting": "[2]", "value": "the Agg1 and Agg2 constructs are cleaved by ADAMTS-4"},
      {"measurement": "cleavage of the fusion protein in 293T supernatant after overnight incubation at 37 C, Western blot probed with anti-IL-4 antibody", "setting": "LAP-MMP IL-4", "value": "LAP-MMP IL-4 is only cleaved by MMP-1 (not cleaved by aggrecanase)"}
    ]}
  ]
}
